Results from PMC11800091 (iScience, 2025).

Legend:
[1] = target: human immunodeficiency virus type 1 JR-CSF Fc-gp120 protein (HIV-1 JR-CSF) (UniProt P20871); experiment: BLI
[2] = target: human immunodeficiency virus type 1 JR-CSF Fc-gp120 protein (HIV-1 JR-CSF, UniProt P20871); experiment: BLI

| Kd [1] [nM] | Kd [2] [nM] | Molecule |
| --- | --- | --- |
| 1.92 | – | LPETG sortag-J3 nanobody (VHH) |
| – | 3.33 | 3E3 nanobody (VHH) VHH: EVQLVESGGGLVQPGGSLRLSCAASQFTLESYAIGWFRQAPGKDSEGVACISSSTYYADSVKGRFTISRDNAKNTVYLQMESLKPEDTAVYHCATSGAGSYCTLRAFGSWGQGTQVTVSS |
| – | 2.51 | LPETG sortag-3E3 nanobody (VHH) VHH: EVQLVESGGGLVQPGGSLRLSCAASQFTLESYAIGWFRQAPGKDSEGVACISSSTYYADSVKGRFTISRDNAKNTVYLQMESLKPEDTAVYHCATSGAGSYCTLRAFGSWGQGTQVTVSS |
